Measurements published in patent publication US9133449B2, “Mutant pyrrolysyl-tRNA synthetase, and method for production of protein having non-natural amino acid integrated therein by using the same” (priority 2007, dated 2015).
Positions count from the first letter of the chain named. Numbers in names are those of the source.

Experiments:
tRNA^Pyl = experiment: Aminoacylation assay of PylRS mutants / PylRS(c270); format: biochemical, Methanosarcina mazei
Method: The full length PylRS mutant was overexpressed in E. coli cells, and then purified using HisTrap column (Amersham Biosciences Inc.). Aminoacylation reaction was performed at ca. 37 degrees Celsius for 1 h. The reaction solution for aminoacylation comprises 2.83 μM of purified PylRS derived from M. mazei (or 9 μM of PylRS (c270)), 10 mM of MgCl2, 2 mM of ATP, 4 mM of DTT, 2.11 μM of transcript of M. mazei-derived tRNA^Pyl, and adequate amount of concentrated solution of a variety of amino acids dissolved in 100 mM of HEPES buffer (pH 7.2). Acid-urea polyacrylamide gel electrophoresis was used to analyze whether tRNA had been aminoacylated or not.

[1] = system: amber stop codon in the chloramphenicol acetyltransferase (CAT) gene, E. coli DH10B cells; experiment: Positive selection by suppression of amber stop codon in CAT gene (chloramphenicol resistance); format: cell-based
Method: The PylRS mutant library was first subjected to a positive selection based on suppression of an amber stop codon located at a nonessential position in the chloramphenicol acetyltransferase (CAT) gene. […] Then the surviving cells were grown in the presence of chloramphenicol and the absence of Boc-Lys.

B1: PylRS(c270) mutant (Y306A) (protein, UniProt Q8PWY1 185-454, looked up, variant Y306A)
chain: ASAPALTKSQTDRLEVLLNPKDEISLNSGKPFRELESELLSRRKKDLQQIYAEERENYLGKLEREITRFFVDRGFLEIKSPILIPLEYIERMGIDNDTELSKQIFRVDKNFCLRPMLAPNLANYLRKLDRALPDPIKIFEIGPCYRKESDGKEHLEEFTMLNFCQMGSGCTRENLESIITDFLNHLGIDFKIVGDSCMVYGDTLDVMHGDLELSSAVVGPIPLDREWGIDKPWIGAGFGLERLLKVKHDFKNIKRAARSESYYNGISTNL
esterification of tRNA^Pyl with Z-Lys (tRNA^Pyl; substrate Z-Lys, compared with wild-type PylRS): much more efficiently than the wild-type PylRS

B2: PylRS(c270): M. mazei PylRS of which the 184 amino acids from the N terminus were truncated (protein, UniProt Q8PWY1 185-454, looked up, fragment)
chain: B1 chain with A122Y
aminoacylation activity with pyrrolysine (tRNA^Pyl; substrate pyrrolysine): may esterify

B3: PylRS mutant (Y384F) (protein, UniProt Q8PWY1 1-454, looked up, variant Y384F)
Pyrrolysine--tRNA ligase: MDKKPLNTLISATGLWMSRTGTIHKIKHHEVSRSKIYIEMACGDHLVVNNSRSSRTARALRHHKYRKTCKRCRVSDEDLNKFLTKANEDQTSVKVKVVSAPTRTKKAMPKSVARAPKPLENTEAAQAQPSGSKFSPAIPVSTQESVSVPASVSTSISSISTGATASALVKGNTNPITSMSAPVQASAPALTKSQTDRLEVLLNPKDEISLNSGKPFRELESELLSRRKKDLQQIYAEERENYLGKLEREITRFFVDRGFLEIKSPILIPLEYIERMGIDNDTELSKQIFRVDKNFCLRPMLAPNLYNYLRKLDRALPDPIKIFEIGPCYRKESDGKEHLEEFTMLNFCQMGSGCTRENLESIITDFLNHLGIDFKIVGDSCMVFGDTLDVMHGDLELSSAVVGPIPLDREWGIDKPWIGAGFGLERLLKVKHDFKNIKRAARSESYYNGISTNL
concentration of chloramphenicol at which cells survived ([1]; in the absence of Boc-Lys): less than 25 μg/ml | concentration of chloramphenicol at which cells survived ([1]; in the presence of Boc-Lys (1 mM)): 150 µg/mL
